Data taken from patent US20220211858A1, “TUBULAR SUPRAMOLECULAR POLYMERS” (priority 2019, published 2022).

Columns and labels:
[1] = TEM / cryo-TEM imaging of self-assembled nanostructures (dimensions); type: physicochemical
Protocol: About 200 μM stock solutions of corresponding TTs in water were prepared by dissolution of the lyophilized powders. After aging overnight, TEM samples were prepared by depositing 7 μL of the appropriate solution onto a carbon-coated copper grid (Electron Microscopy Services, Hatfield, Pa., USA), wicking away the excess solution with a small piece of filter paper. Next, 7 μL of a 2 wt % uranyl acetate aqueous solution was deposited on the surface for 30 seconds, wicking away the excess solution with filter paper. The grids were then air-dried overnight at room temperature prior to imaging. Bright-field TEM imaging was performed using an FEI Tecnai 12 TWIN Transmission Electron Microscope operated at an acceleration voltage of 100 kV. All TEM images were acquired by a SIS Megaview III wide-angle CCD camera or 16 bit 2K×2K FEI Eagle bottom mount camera.
Cryo-TEM imaging was performed using higher sample concentrations of 800 μM (compared with 200 μM for conventional TEM imaging). Extended imaging times can result in damage to the vitreous ice film caused by the electron beam and so higher concentrations can allow a more rapid visualization that reduces this likelihood. About 6 μL of the appropriate solution was dropped onto a lacey carbon-film-supported TEM copper grid (Electron Microscopy Services, Hatfield, Pa., USA). All the TEM grids used for cryo-TEM imaging were pretreated with plasma air to render the lacey carbon film hydrophilic. A thin film of the sample solution was produced using a Vitrobot with a controlled humidity chamber (FEI). After loading of the sample solution, the lacey carbon grid was blotted using preset parameters and plunged instantly into a liquid ethane reservoir precooled by liquid nitrogen. The vitrified samples were then transferred to a cryo-holder and cryo-transfer stage that was cooled by liquid nitrogen. To prevent sublimation of vitreous water, the cryo-holder temperature was maintained below −170° C. during the imaging process. All images were recorded by a Tecnai 12 microscope with a cryo-holder, and the images were acquired by a 16 bit 2K×2K FEI Eagle bottom mount camera.
Self-Assembly of SAPDs from TT1. To study the self-assembly behavior of the SAPDs, we directly dissolved the lyophilized powders in deionized water at a concentration of 2 mM and neutral pH.

[2] = Encapsulation of hydrophobic dyes and paclitaxel in TT 1 nanotubes; type: physicochemical
Protocol: A 300 μM in water stock solution of TT 1 prodrug was prepared and aged overnight to form nanotubes. Hydrophobic dyes, such as Coumarin 6 (C6), Nile Red, Rose Bengal lactone (Rose), and IR 780 iodide (IR 780), were dissolved in acetonitrile at a concentration of 600 μM (FIG. 18). To perform the dye encapsulation experiments, 400 μL of the pre-formed nanotube solution and 200 μL of the corresponding dye solution in acetonitrile were mixed together to make a final solution of 600 μL (H2O/MeCN=2:1, v/v) in which the concentration of both prodrug and dye was 200 μM (prodrug/dye=1:1, mol/mol). The resulting mixed nanotube and dye solution was aged overnight to allow the penetration of dye molecules into the nanotube structures and then directly lyophilized to fully remove all the solvents. Next, the lyophilized powder was reconstituted to a final prodrug concentration of 200 μM by the addition of 600 μL of water and vortexing for 60 s. The solutions were aged for at least 6 h before being centrifuged (6000 rpm, 5 min) to remove any precipitated free dye. The supernatant was collected for further study. The dye loading capacity was calculated from the percentage of dye in the supernatant to the sum of encapsulated dye and added prodrugs. To get a higher resolution of dye-doped TT 1 solution, the solutions imaged in FIG. 4A were concentrated to a concentration of 800 μM.
In addition to functional dye molecules, the hydrophobic drug paclitaxel (PTX) was also used as a model compound to dope the TT 1 nanotubes, following the procedure described in the paragraph describing CD measurements of TT solutions above. After encapsulation, analytical HPLC was used to analyze the components of drug-doped nanotubes, monitoring the absorption at 220 nm. […] The concentrations of both nanotube and PTX were determined by comparing the area under the curve of each component with its standard calibration curve, yielding an encapsulation efficiency around 11%. The CD spectrum of PTX-doped nanotube was also recorded, showing a slight decrease in intensity compared with a pure nanotube solution at the same concentration (FIG. 17B).

[3] = Maximum tolerated dose (MTD) dose escalation study; design: species or system athymic nude mice; conditions: female, athymic nude, mouse, in vivo, intravenous, three doses, four days a dose; ½ of single-injection MTD; read-out: MTD of multiple injections

CC[C@]1(OC(=O)OCCSSC[C@@H](NC(C)=O)C(=O)N[C@@H](CCCCNC(=O)[C@@H](CSSCCOC(=O)O[C@]2(CC)C(=O)OCc3c2cc2n(c3=O)Cc3cc4ccccc4nc3-2)NC(C)=O)C(=O)N[C@@H](CCCCNC(=O)CCOCCOCCOCCOCCOC)C(=O)N[C@@H](CCCCNC(=O)CCOCCOCCOCCOCCOC)C(N)=O)C(=O)OCc2c1cc1n(c2=O)Cc2cc3ccccc3nc2-1 [TT 1]
wall thickness measured from toroids ([1]; TT 1 nanotubes, TEM): 3.0±0.5 nm
hollow interior diameter ([1]; TT 1 nanotubes, toroids, TEM): 2.5±0.6 nm
nanotube diameter after loading ([1]; loaded with Coumarin 6, TEM): 9.8±1.4 nm
nanotube diameter after loading ([1]; loaded with IR 780, TEM): 10.2±0.9 nm
nanotube diameter after loading ([1]; loaded with Nile Red, TEM): 9.6±1.2 nm
nanotube diameter after loading ([1]; loaded with Rose Bengal lactone, TEM): 10.7±1.4 nm
diameter of PTX-doped nanotubes ([1]; paclitaxel-doped, 200 μM, TEM): 10.6±0.9 nm
Diameters measured by conventional TEM ([1]; self-assembled nanotubes in water, 200 μM, n>40): 8.8 ± 0.8 nm
dye loading content ([2]; Coumarin 6 (C6) in TT 1 assemblies): 4.5%
dye loading content ([2]; IR-780 in TT 1 assemblies): 10.3%
dye loading content ([2]; Nile Red in TT 1 assemblies): 4.4%
dye loading content ([2]; Rose Bengal lactone in TT 1 assemblies): 14.8%
MTD [3]: 12 mg/kg
